In the RNAGym collection of RNA variant scans (doi:10.7554/elife.80360) one finds self-cleavage data, which are given here for 78 variants.

The labels stand for the following.
B1: CPEB3 Ribozyme (parent)
chain: GGGGGCCACAGCAGAAGCGUUCACGUCGCGGCCCCUGUCAGAUUCUGGUGAAUCUGCGAAUUCUGCUGU

The series covers variants of B1. As to the kind of experiment: self-cleavage, relative activity (ratio to wild type); higher = more cleavage; co-transcriptional.
For GGGGGCCACAGUAGAAGCGUUCACGUCGCGGCCCCUGUCAGAUUCUGGUGAAUCUACGAAUUCUGCUGU, the self-cleavage was found to be 0.844.

With GGGGGCCACAGCCGAAGCGUUCAAGUCGCGGCCCCUGUCAGAUUCUGGUGAAUCUGCGAAUUCUGCUGU, the self-cleavage was determined as 0.402. As for GGGGGCCACAGCCGAAGCGUUCAUGUCGCGGCCCCUGUCAGAUUCUGGUGAAUCUGCGAAUUCUGCUGU, the self-cleavage was determined as 0.543. The value for GGGGGCCACAGUAGAAGCGAUCACGUCGCGGCCCCUGUCAGAUUCUGGUGAAUCUGCGAAUUCUGCUGU was 0.146; that for GGGGGCCACAGUAGAAGCGCUCACGUCGCGGCCCCUGUCAGAUUCUGGUGAAUCUGCGAAUUCUGCUGU was 0.165. To GGGGGCCACAGUAGAAGCGUUCACGUCGCGGCCCCUGUCAGAUUCUGGUGAAUCUGCGAAUUCUGCUUU belongs 0.995; to GGGGGCCACAGUAGAAGCGUUCACGUCGCGGCCCCUGUCAGAUUCUGGUGAAUCUGCGAAUUCUGCUAU, 0.997. On to GGGGGCCACAGCCGAAGCGUUCACGUCGCGGCCCCUGUCAGAUUCUGGUGGAUCUGCGAAUUCUGCUGU, for which the self-cleavage worked out at 0.903. The value for GGGGGCCACAGUAGAAGCGUUCACGUCGCGUCCCCUGUCAGAUUCUGGUGAAUCUGCGAAUUCUGCUGU was 0.723; that for GGGGGCCACAGUAGAAGCGUUCACGUCGCGCCCCCUGUCAGAUUCUGGUGAAUCUGCGAAUUCUGCUGU was 0.191.

In the case of GGGGGCCACAGCCGAAGCGUUCACGUUGCGGCCCCUGUCAGAUUCUGGUGAAUCUGCGAAUUCUGCUGU, the self-cleavage stood at 0.15.

As for GGGGGCCACAGCCGAAGCGUUCACGUAGCGGCCCCUGUCAGAUUCUGGUGAAUCUGCGAAUUCUGCUGU, the self-cleavage is 0.145. Turning to GGGGGCCACAGUAGAAGCGUUCACGUCGCGGCCCCUGGCAGAUUCUGGUGAAUCUGCGAAUUCUGCUGU, the self-cleavage turned out to be 0.277. In the case of GGGGGCCACAGUAGAAGCGUUCACGUCGCGGCCCCUGCCAGAUUCUGGUGAAUCUGCGAAUUCUGCUGU, the self-cleavage amounted to 0.921. To GGGGGCCACAGUAGAAGCGUUCACGUCGCGGCCCCUGUCAGAUUCUGGUGAAUCUGCGAAUUCAGCUGU belongs 0.697; to GGGGGCCACAGUAGAAGCGUUCACGUCGCGGCCCCUGUCAGAUUCUGGUGAAUCUGCGAAUUCGGCUGU, 0.757.

As for GGGGGCCACAGUAGAAGCGUUCACGUCGCGGCCCCUGUCAGAUUCUGGUGAAUCUGCGAAUUCCGCUGU, the self-cleavage stood at 0.785. Take GGGGGCCACAGCCGAAGCGUUCACGUCGCGGCCCCUGUCAGAUUCUGGUGAAUCUGCGAGUUCUGCUGU: the self-cleavage amounted to 0.384.

For GGGGGCCACAGCCGAAGCGUUCACGUCGCGGCCCCUGUCAGAUUCUGGUGAAUCUGCGACUUCUGCUGU, the self-cleavage amounted to 0.301. Take GGGGGCCACAGCCGAAGCGUUCUCGUCGCGGCCCCUGUCAGAUUCUGGUGAAUCUGCGAAUUCUGCUGU: the self-cleavage was 0.788. The value for GGGGGCCACAGCCGAAGCGUUCGCGUCGCGGCCCCUGUCAGAUUCUGGUGAAUCUGCGAAUUCUGCUGU was 0.507; that for GGGGGCCACAGUAGAAGCGUUCACGUCGCGGCCCCUGUCAGAUUCUGUUGAAUCUGCGAAUUCUGCUGU was 1.01; that for GGGGGCCACAGUAGAAGCGUUCACGUCGCGGCCCCUGUCAGAUUCUGGUGAAGCUGCGAAUUCUGCUGU was 0.771. The value for GGGGGCCACAGUAGAAGCGUUCACGUCGCGGCCCCUGUCAGAUUCUGGUGAAACUGCGAAUUCUGCUGU was 0.909; that for GGGGGCCACAGCCGAAGCGUUUACGUCGCGGCCCCUGUCAGAUUCUGGUGAAUCUGCGAAUUCUGCUGU was 0.209.

As to GGGGGCCACAGUAGAAGCGUUCACGUCGCGGCCCCUGUCAGAUUCUGGGGAAUCUGCGAAUUCUGCUGU, the self-cleavage is 1. To GGGGGCCACAGUAGAAGCGUUCACGUCGCGGCCCCUGUCAGAUUCUGGCGAAUCUGCGAAUUCUGCUGU belongs 0.971; to GGGGGCCACAGUAGAAGCGUUCACGUCGCGGCCCCUGUCAGAUUCUGGUGAAUCCGCGAAUUCUGCUGU, 0.83; to GGGGGCCACAGUAGAAGCGUUCACGUCGCGGCCCCUGUCAGAUUCUGGUGAAUCGGCGAAUUCUGCUGU, 0.616. The value for GGGGGCCACAGCCGAAGCGUUCACGUCGCGGCCCCUGUCAGAUUCUGGUGACUCUGCGAAUUCUGCUGU was 0.77; that for GGGGGCCACAGCCGAAGCGUUCACGUCGCGGCCCCUGUCAGAUUCUGGUGAUUCUGCGAAUUCUGCUGU was 0.837; that for GGGGGCCACAGCCGAAGCGUUCACGUCGCGGCCCCUGUCAGGUUCUGGUGAAUCUGCGAAUUCUGCUGU was 0.506. With GGGGGCCACAGCCGAAGCGUUCACGUCGCGGCCCCUGUCAGUUUCUGGUGAAUCUGCGAAUUCUGCUGU, the self-cleavage amounted to 0.561. In the case of GGGGGCCACAGUAGAAGCGUUCACGUCGCGGCCCCUGUCAGAUCCUGGUGAAUCUGCGAAUUCUGCUGU, the self-cleavage is 0.906. As for GGGGGCCACAGCCGAGGCGUUCACGUCGCGGCCCCUGUCAGAUUCUGGUGAAUCUGCGAAUUCUGCUGU, the self-cleavage came to 0.682. In the case of GGGGGCCACAGCCGAUGCGUUCACGUCGCGGCCCCUGUCAGAUUCUGGUGAAUCUGCGAAUUCUGCUGU, the self-cleavage came out at 0.185. GGGGGCCACAGCCGACGCGUUCACGUCGCGGCCCCUGUCAGAUUCUGGUGAAUCUGCGAAUUCUGCUGU: the self-cleavage worked out at 0.102. GGGGGCCACAGUAGAAGCGUUCACGUCGCGGCCCCUAUCAGAUUCUGGUGAAUCUGCGAAUUCUGCUGU: the self-cleavage turned out to be 0.302. Turning to GGGGGCCACAGUAGAAGCGUUCACGUCGCGGCCCCUUUCAGAUUCUGGUGAAUCUGCGAAUUCUGCUGU, the self-cleavage was found to be 0.222. Take GGGGGCCACAGUAGAAGCGUUCACGUCGCGGCCCCUCUCAGAUUCUGGUGAAUCUGCGAAUUCUGCUGU: the self-cleavage was 0.241. For GGGGGCCACAGUAGAAGCGUUCACGUCGCGGCCCCGGUCAGAUUCUGGUGAAUCUGCGAAUUCUGCUGU, the self-cleavage is 0.193. To GGGGGCCACAGUAGAAGCGUUCACGUCGCGGCCCCAGUCAGAUUCUGGUGAAUCUGCGAAUUCUGCUGU belongs 0.231; to GGGGGCCACAGUAGAAGCGUUCACGUCGCGGCCCCUGUCAGAUUCUGGUGAAUCUGCGAAUUCUGCUGC, 1.07. For the variant GGGGGCCACAGUAGAAGCGUUCACGUCGCGGCCCCUGUCAGAUUCUGGUCAAUCUGCGAAUUCUGCUGU, the self-cleavage came to 0.974. With GGGGGCCACAGUAGAAGCGUUCACGUCGCGGCCCCUGUCAGAUUCUGGUAAAUCUGCGAAUUCUGCUGU, the self-cleavage came to 1. For the variant GGGGGCCACAGCCGAAGCGUUCACGUCGCGGCCCCUGUCCGAUUCUGGUGAAUCUGCGAAUUCUGCUGU, the self-cleavage was 0.247. To GGGGGCCACAGCCGAAGCGUUCACGUCGCGGCCCCUGUCUGAUUCUGGUGAAUCUGCGAAUUCUGCUGU belongs 0.23. For GGGGGCCACAGUAGAAGCGUUCACGUCGCGGCCCCUGUCAGAUUCUGGUGAAUCUGCGAAUUCUGCGGU, the self-cleavage was found to be 0.938. To GGGGGCCACAGUAGAAGCGUUCACGUCGCGGCCCCUGUCAGAUUCUGGUGAAUCUGCGAAUUCUGCAGU belongs 0.948. Consider GGGGGCCACAGUAGAAGCGUUCACGGCGCGGCCCCUGUCAGAUUCUGGUGAAUCUGCGAAUUCUGCUGU, for which the self-cleavage was 0.925. For the variant GGGGGCCACAGUAGAAGCGUUCACGCCGCGGCCCCUGUCAGAUUCUGGUGAAUCUGCGAAUUCUGCUGU, the self-cleavage came to 0.996. Consider GGGGGCCACAGUAGAAGCGUUCACGACGCGGCCCCUGUCAGAUUCUGGUGAAUCUGCGAAUUCUGCUGU, for which the self-cleavage was determined as 0.91. GGGGGCCACAGUAGAAGCGUUCACGUCGCGGCCCCUGUCAGAUUCUGGUGAAUCUGCAAAUUCUGCUGU: the self-cleavage is 1.01.

For GGGGGCCACAGUAGAAGCGUUCACGUCGCGGCCCCUGUCAGAUUCUGGUGAAUCUGCUAAUUCUGCUGU, the self-cleavage is 0.991. The value for GGGGGCCACAGUAGAAGCGUUCACGUCGCGGCCCCUGUCAGAUUCUGGUGAAUCUGCGAAAUCUGCUGU was 0.822; that for GGGGGCCACAGUAGAAGCGUUCACGUCGCGGCCCCUGUCAGAUUCUGGUGAAUCUGCGAAUUCUCCUGU was 0.864. As for GGGGGCCACAGUAGAAGCGUUCACGUCGCGGCCCCUGUCAGAUUCUGGUGAAUCUGCGAAUUCUACUGU, the self-cleavage was 1. To GGGGGCCACAGUAGAAGCGUUCACGUCGCGGCCCCUGUCAGAUUCUGGUGAAUCUGCGAAUUCUUCUGU belongs 0.948; to GGGGGCCACAGUAGAAGCGUUCACGUCGCGGCCCCUGUCAUAUUCUGGUGAAUCUGCGAAUUCUGCUGU, 0.718. For the variant GGGGGCCACAGCCGAAGAGUUCACGUCGCGGCCCCUGUCAGAUUCUGGUGAAUCUGCGAAUUCUGCUGU, the self-cleavage worked out at 0.181. In the case of GGGGGCCACAGCCGAAGGGUUCACGUCGCGGCCCCUGUCAGAUUCUGGUGAAUCUGCGAAUUCUGCUGU, the self-cleavage was determined as 0.0963. For GGGGGCCACAGCCGAAGUGUUCACGUCGCGGCCCCUGUCAGAUUCUGGUGAAUCUGCGAAUUCUGCUGU, the self-cleavage came to 0.262. Turning to GGGGGCCACAGCCGAAGCGUUCACGUCGAGGCCCCUGUCAGAUUCUGGUGAAUCUGCGAAUUCUGCUGU, the self-cleavage came to 0.21. The value for GGGGGCCACAGUAGAAGCGUUCACGUCGCGGCCCCUGUCAGAUUCUCGUGAAUCUGCGAAUUCUGCUGU was 1.03.

GGGGGCCACAGUAGAAGCGUUCACGUCGCGGCCCCUGUCAGAUUCUAGUGAAUCUGCGAAUUCUGCUGU: the self-cleavage is 1.03. Consider GGGGGCCACAGUAGAAGCGUUCACGUCGCGGCCCCUGUCAGAUUCUUGUGAAUCUGCGAAUUCUGCUGU, for which the self-cleavage came to 0.998. The value for GGGGGCCACAGUAGAAGCGUACACGUCGCGGCCCCUGUCAGAUUCUGGUGAAUCUGCGAAUUCUGCUGU was 0.947. For GGGGGCCACAGUAGAAGCGUGCACGUCGCGGCCCCUGUCAGAUUCUGGUGAAUCUGCGAAUUCUGCUGU, the self-cleavage came to 0.537. As for GGGGGCCACAGUAGAAGCGUUCACGUCGCGGCCCCUGUCAGAGUCUGGUGAAUCUGCGAAUUCUGCUGU, the self-cleavage is 0.706. Take GGGGGCCACAGUAGAAGCGUUCACGUCGCGGCCCCUGUCAGACUCUGGUGAAUCUGCGAAUUCUGCUGU: the self-cleavage turned out to be 0.928. GGGGGCCACAGCCGAAGCGUUCACGUCGCGGCCCCUGUCAGAUUCUGGUGAAUCUGCGCAUUCUGCUGU: the self-cleavage amounted to 0.395. As to GGGGGCCACAGCCGAAGCGUUCACGUCGCGGCCCCUGUCAGAUUCUGGUGAAUCUGCGGAUUCUGCUGU, the self-cleavage is 0.794.

Regarding GGGGGCCACAGCCGAAGCGUUCACGUCGCGGCCCCUGUCAGAUUCUGGUGAAUCUGCGUAUUCUGCUGU, the self-cleavage stood at 0.479. Regarding GGGGGCCACAGCCGGAGCGUUCACGUCGCGGCCCCUGUCAGAUUCUGGUGAAUCUGCGAAUUCUGCUGU, the self-cleavage was determined as 0.662.

As to GGGGGCCACAGUAGAAGCGUUCACGUCGCGGCCCCUGUCAGAUUCCGGUGAAUCUGCGAAUUCUGCUGU, the self-cleavage is 0.939. As for GGGGGCCACAGUAGAAGCGUUCACGUCGCGGCCCCUGUCAGAUUCAGGUGAAUCUGCGAAUUCUGCUGU, the self-cleavage was 1. To GGGGGCCACAGUAGAAGCGUUCACGUCGCGGCCCCUGUCAGAUUCUGGUGAAUCUGCGAAUACUGCUGU belongs 0.819; to GGGGGCCACAGUAGAAGCGUUCACGUCGCGGCCCCUGUCAGAUUCUGGUGAAUCUGCGAAUGCUGCUGU, 0.542.
